Source: the supplement of paper PMC9112550, “Optimization of the antimicrobial peptide Bac7 by deep mutational scanning” (BMC Biology, 2022)

Tested on: Escherichia coli TOP10
Assay: shrunken log2 fold change of peptide-encoding DNA abundance (4.5 h post-induction vs induction); higher = less antimicrobial activity (less host growth inhibition)
Conditions: time post-induction: 4.5 h; library: site-saturation at positions 5, 18, 19, 20
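Also: peptides expressed intracellularly from a pBAD plasmid library in pooled LB shake-flask culture, induced with 0.3% L-arabinose, DNA abundance read by NGS, three biological replicates, DESeq2 with apeglm shrinkage.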

RRIRTRPPRLPRPRPRPQVTPRP
shrunken log2 fold change: 0.304

RRIRTRPPRLPRPRPRPQYWPRP
shrunken log2 fold change: -0.163

RRIRTRPPRLPRPRPRPRGEPRP
shrunken log2 fold change: 0.152

RRIRTRPPRLPRPRPRPRGHPRP
shrunken log2 fold change: 0.182

RRIRTRPPRLPRPRPRPRKLPRP
shrunken log2 fold change: -0.073

RRIRTRPPRLPRPRPRPRKQPRP
shrunken log2 fold change: 0.0743

RRIRTRPPRLPRPRPRPRLAPRP
shrunken log2 fold change: 0.453

RRIRTRPPRLPRPRPRPRLSPRP
shrunken log2 fold change: -0.0634

RRIRTRPPRLPRPRPRPRLVPRP
shrunken log2 fold change: 0.0412

RRIRTRPPRLPRPRPRPRMKPRP
shrunken log2 fold change: 0.0156

RRIRTRPPRLPRPRPRPRPEPRP
shrunken log2 fold change: 0.238

RRIRTRPPRLPRPRPRPRPNPRP
shrunken log2 fold change: 0.267

RRIRTRPPRLPRPRPRPRPSPRP
shrunken log2 fold change: 0.703

RRIRTRPPRLPRPRPRPRQLPRP
shrunken log2 fold change: 0.187

RRIRTRPPRLPRPRPRPRSDPRP
shrunken log2 fold change: 0.0841

RRIRTRPPRLPRPRPRPRSLPRP
shrunken log2 fold change: 0.19

RRIRTRPPRLPRPRPRPRSMPRP
shrunken log2 fold change: 0.0542

RRIRTRPPRLPRPRPRPRSNPRP
shrunken log2 fold change: 0.186

RRIRTRPPRLPRPRPRPRSTPRP
shrunken log2 fold change: 0.377

RRIRTRPPRLPRPRPRPRVMPRP
shrunken log2 fold change: 0.0867

RRIRTRPPRLPRPRPRPRVRPRP
shrunken log2 fold change: 2.2

RRIRTRPPRLPRPRPRPRWIPRP
shrunken log2 fold change: 0.0272

RRIRTRPPRLPRPRPRPSAEPRP
shrunken log2 fold change: 0.363

RRIRTRPPRLPRPRPRPSAKPRP
shrunken log2 fold change: 0.227

RRIRTRPPRLPRPRPRPSCAPRP
shrunken log2 fold change: -0.127

RRIRTRPPRLPRPRPRPSCHPRP
shrunken log2 fold change: -0.783

RRIRTRPPRLPRPRPRPSCWPRP
shrunken log2 fold change: 0.00851

RRIRTRPPRLPRPRPRPSDYPRP
shrunken log2 fold change: -0.278

RRIRTRPPRLPRPRPRPSFEPRP
shrunken log2 fold change: -0.328

RRIRTRPPRLPRPRPRPSHKPRP
shrunken log2 fold change: -0.421

RRIRTRPPRLPRPRPRPSHTPRP
shrunken log2 fold change: -0.0162

RRIRTRPPRLPRPRPRPSIRPRP
shrunken log2 fold change: -0.183

RRIRTRPPRLPRPRPRPSKCPRP
shrunken log2 fold change: -0.535

RRIRTRPPRLPRPRPRPSLQPRP
shrunken log2 fold change: -0.0953

RRIRTRPPRLPRPRPRPSMVPRP
shrunken log2 fold change: -0.0429

RRIRTRPPRLPRPRPRPSNDPRP
shrunken log2 fold change: -0.557

RRIRTRPPRLPRPRPRPSNKPRP
shrunken log2 fold change: -0.916

RRIRTRPPRLPRPRPRPSPCPRP
shrunken log2 fold change: -0.0588

RRIRTRPPRLPRPRPRPSQFPRP
shrunken log2 fold change: -0.302

RRIRTRPPRLPRPRPRPSRCPRP
shrunken log2 fold change: 0.061

RRIRTRPPRLPRPRPRPSRPPRP
shrunken log2 fold change: 0.202

RRIRTRPPRLPRPRPRPSSHPRP
shrunken log2 fold change: -0.669

RRIRTRPPRLPRPRPRPSSNPRP
shrunken log2 fold change: -0.589

RRIRTRPPRLPRPRPRPTAGPRP
shrunken log2 fold change: 0.59

RRIRTRPPRLPRPRPRPTAKPRP
shrunken log2 fold change: -0.143

RRIRTRPPRLPRPRPRPTALPRP
shrunken log2 fold change: 0.0207

RRIRTRPPRLPRPRPRPTASPRP
shrunken log2 fold change: 0.0344

RRIRTRPPRLPRPRPRPTAYPRP
shrunken log2 fold change: -0.0821

RRIRTRPPRLPRPRPRPTELPRP
shrunken log2 fold change: -0.0329

RRIRTRPPRLPRPRPRPTERPRP
shrunken log2 fold change: 0.36

RRIRTRPPRLPRPRPRPTFGPRP
shrunken log2 fold change: 0.0406

RRIRTRPPRLPRPRPRPTFLPRP
shrunken log2 fold change: -0.0937

RRIRTRPPRLPRPRPRPTFSPRP
shrunken log2 fold change: -0.169

RRIRTRPPRLPRPRPRPTGHPRP
shrunken log2 fold change: 0.131

RRIRTRPPRLPRPRPRPTGRPRP
shrunken log2 fold change: 0.099

RRIRTRPPRLPRPRPRPTHCPRP
shrunken log2 fold change: 0.0158

RRIRTRPPRLPRPRPRPTHDPRP
shrunken log2 fold change: 0.139

RRIRTRPPRLPRPRPRPTHQPRP
shrunken log2 fold change: 0.926

RRIRTRPPRLPRPRPRPTIDPRP
shrunken log2 fold change: -0.319

RRIRTRPPRLPRPRPRPTIMPRP
shrunken log2 fold change: -0.597

RRIRTRPPRLPRPRPRPTIPPRP
shrunken log2 fold change: -0.198

RRIRTRPPRLPRPRPRPTMRPRP
shrunken log2 fold change: 0.867

RRIRTRPPRLPRPRPRPTQKPRP
shrunken log2 fold change: -0.0787

RRIRTRPPRLPRPRPRPTQWPRP
shrunken log2 fold change: 0.364

RRIRTRPPRLPRPRPRPTQYPRP
shrunken log2 fold change: -0.207

RRIRTRPPRLPRPRPRPTRVPRP
shrunken log2 fold change: 0.214

RRIRTRPPRLPRPRPRPTRWPRP
shrunken log2 fold change: 0.301

RRIRTRPPRLPRPRPRPTSIPRP
shrunken log2 fold change: -0.195

RRIRTRPPRLPRPRPRPTSPPRP
shrunken log2 fold change: 0.119

RRIRTRPPRLPRPRPRPTSRPRP
shrunken log2 fold change: 0.141

RRIRTRPPRLPRPRPRPTTEPRP
shrunken log2 fold change: -0.16

RRIRTRPPRLPRPRPRPTVFPRP
shrunken log2 fold change: -0.14

RRIRTRPPRLPRPRPRPTVWPRP
shrunken log2 fold change: -0.049

RRIRTRPPRLPRPRPRPTYEPRP
shrunken log2 fold change: -0.174

RRIRTRPPRLPRPRPRPTYIPRP
shrunken log2 fold change: -0.603

RRIRTRPPRLPRPRPRPVACPRP
shrunken log2 fold change: -0.0699

RRIRTRPPRLPRPRPRPVARPRP
shrunken log2 fold change: 2.14

RRIRTRPPRLPRPRPRPVCLPRP
shrunken log2 fold change: -0.398

RRIRTRPPRLPRPRPRPVCPPRP
shrunken log2 fold change: 0.186

RRIRTRPPRLPRPRPRPVFLPRP
shrunken log2 fold change: -0.56

RRIRTRPPRLPRPRPRPVFTPRP
shrunken log2 fold change: -0.105

RRIRTRPPRLPRPRPRPVGMPRP
shrunken log2 fold change: -0.388

RRIRTRPPRLPRPRPRPVGSPRP
shrunken log2 fold change: -0.243

RRIRTRPPRLPRPRPRPVHSPRP
shrunken log2 fold change: -0.0193

RRIRTRPPRLPRPRPRPVHWPRP
shrunken log2 fold change: 0.842

RRIRTRPPRLPRPRPRPVICPRP
shrunken log2 fold change: -0.157

RRIRTRPPRLPRPRPRPVKVPRP
shrunken log2 fold change: 0.00854

RRIRTRPPRLPRPRPRPVLDPRP
shrunken log2 fold change: -0.0579

RRIRTRPPRLPRPRPRPVLVPRP
shrunken log2 fold change: -0.106

RRIRTRPPRLPRPRPRPVMTPRP
shrunken log2 fold change: -0.14

RRIRTRPPRLPRPRPRPVQCPRP
shrunken log2 fold change: 0.00249

RRIRTRPPRLPRPRPRPVQGPRP
shrunken log2 fold change: 0.165

RRIRTRPPRLPRPRPRPVQQPRP
shrunken log2 fold change: 0.0144

RRIRTRPPRLPRPRPRPVRQPRP
shrunken log2 fold change: 0.264

RRIRTRPPRLPRPRPRPVRRPRP
shrunken log2 fold change: 0.38

RRIRTRPPRLPRPRPRPVTWPRP
shrunken log2 fold change: -0.0681

RRIRTRPPRLPRPRPRPVWTPRP
shrunken log2 fold change: 0.03

RRIRTRPPRLPRPRPRPVYIPRP
shrunken log2 fold change: -0.6

RRIRTRPPRLPRPRPRPVYPPRP
shrunken log2 fold change: -0.00118

RRIRTRPPRLPRPRPRPWAKPRP
shrunken log2 fold change: 0.057

RRIRTRPPRLPRPRPRPWCMPRP
shrunken log2 fold change: -0.0742

RRIRTRPPRLPRPRPRPWCWPRP
shrunken log2 fold change: -0.0632

RRIRTRPPRLPRPRPRPWDTPRP
shrunken log2 fold change: -0.15

RRIRTRPPRLPRPRPRPWEDPRP
shrunken log2 fold change: 0.0242

RRIRTRPPRLPRPRPRPWGLPRP
shrunken log2 fold change: 0.00838

RRIRTRPPRLPRPRPRPWHLPRP
shrunken log2 fold change: -0.0134

RRIRTRPPRLPRPRPRPWINPRP
shrunken log2 fold change: 0.0189

RRIRTRPPRLPRPRPRPWISPRP
shrunken log2 fold change: -0.0102

RRIRTRPPRLPRPRPRPWKSPRP
shrunken log2 fold change: -0.0257

RRIRTRPPRLPRPRPRPWNPPRP
shrunken log2 fold change: 0.0296

RRIRTRPPRLPRPRPRPWNSPRP
shrunken log2 fold change: -0.0351

RRIRTRPPRLPRPRPRPWNYPRP
shrunken log2 fold change: -0.567

RRIRTRPPRLPRPRPRPWPFPRP
shrunken log2 fold change: -0.0102

RRIRTRPPRLPRPRPRPWQAPRP
shrunken log2 fold change: 0.177

RRIRTRPPRLPRPRPRPWQCPRP
shrunken log2 fold change: 0.00408

RRIRTRPPRLPRPRPRPWQQPRP
shrunken log2 fold change: -0.0121

RRIRTRPPRLPRPRPRPWREPRP
shrunken log2 fold change: -0.00743

RRIRTRPPRLPRPRPRPWSDPRP
shrunken log2 fold change: -0.0131

RRIRTRPPRLPRPRPRPWSGPRP
shrunken log2 fold change: -0.187

RRIRTRPPRLPRPRPRPWTHPRP
shrunken log2 fold change: -0.0143

RRIRTRPPRLPRPRPRPWTKPRP
shrunken log2 fold change: -0.00433

RRIRTRPPRLPRPRPRPWTRPRP
shrunken log2 fold change: 0.064

RRIRTRPPRLPRPRPRPWVHPRP
shrunken log2 fold change: -0.0467

RRIRTRPPRLPRPRPRPWWDPRP
shrunken log2 fold change: 0.132

RRIRTRPPRLPRPRPRPWWVPRP
shrunken log2 fold change: -0.0227

RRIRTRPPRLPRPRPRPYAEPRP
shrunken log2 fold change: -0.612

RRIRTRPPRLPRPRPRPYANPRP
shrunken log2 fold change: -0.00264

RRIRTRPPRLPRPRPRPYAQPRP
shrunken log2 fold change: -0.495

RRIRTRPPRLPRPRPRPYCIPRP
shrunken log2 fold change: -0.205

RRIRTRPPRLPRPRPRPYDHPRP
shrunken log2 fold change: -0.097

RRIRTRPPRLPRPRPRPYDWPRP
shrunken log2 fold change: -0.696

RRIRTRPPRLPRPRPRPYFLPRP
shrunken log2 fold change: -1.18

RRIRTRPPRLPRPRPRPYGTPRP
shrunken log2 fold change: -0.347

RRIRTRPPRLPRPRPRPYIDPRP
shrunken log2 fold change: -0.132

RRIRTRPPRLPRPRPRPYIKPRP
shrunken log2 fold change: -1.22

RRIRTRPPRLPRPRPRPYIPPRP
shrunken log2 fold change: -0.462

RRIRTRPPRLPRPRPRPYIVPRP
shrunken log2 fold change: -1.04

RRIRTRPPRLPRPRPRPYKCPRP
shrunken log2 fold change: -0.372

RRIRTRPPRLPRPRPRPYKGPRP
shrunken log2 fold change: -0.0116

RRIRTRPPRLPRPRPRPYKIPRP
shrunken log2 fold change: -0.15

RRIRTRPPRLPRPRPRPYNVPRP
shrunken log2 fold change: -0.297

RRIRTRPPRLPRPRPRPYPMPRP
shrunken log2 fold change: -1.43

RRIRTRPPRLPRPRPRPYPNPRP
shrunken log2 fold change: -0.414

RRIRTRPPRLPRPRPRPYQPPRP
shrunken log2 fold change: -0.0681

RRIRTRPPRLPRPRPRPYTQPRP
shrunken log2 fold change: -0.434

RRIRTRPPRLPRPRPRPYVAPRP
shrunken log2 fold change: -0.562

RRIRTRPPRLPRPRPRPYVFPRP
shrunken log2 fold change: -0.394

RRIRTRPPRLPRPRPRPYVRPRP
shrunken log2 fold change: 0.0143

RRIRVRPPRLPRPRPRPAADPRP
shrunken log2 fold change: 0.437

RRIRVRPPRLPRPRPRPAAQPRP
shrunken log2 fold change: 0.433
